Experiment: soluble fraction after stress (log2 fold change); higher = more stays soluble; pooled small domains, quantitative proteomics
Settings: stress: 75 degC
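Also: 20 min heating vs room temperature control held 20 min.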

HMKERVSWDERLERFAKHITENESLPYPSSKEYAWFEENKALYDAGELEPVRAQSFAFLLKIMRRMNL
soluble fraction (log2): -1.7

HMKETIIPELLQNELDKNSELNDKFNTFSPYKQREFIEYIITAKQEKTQISRLQKVILMILEGRGLNN
soluble fraction (log2): -1.89

HMKEVELENMIKAKGFKDAAVLVDERSVTVIVESERLAAGDSASIKELVSRGTGVDPQNVVII
soluble fraction (log2): -0.31

HMKEYPEVITTSRLNVRTGPGTGYQRLGTLDQNLRVLVLTRQQGWAQIRGMLNGETVIGWVNDYYLQAID
soluble fraction (log2): -2.54

HMKFINISIDKSGNLFINKKSIKFQDLKYNVVNLVDESKNLVVLNADENISHGYVISVLDVLRSIDGLKLA
soluble fraction (log2): -2.13

HMKFNEKQNEVRIAIMNFIIDNKRPFHMKQDGYDALEGITLSGRHEFQDILDVLHSRDGFSADEEGNINF
soluble fraction (log2): -1.09

HMKFPIITAKQDSDGKFYWAQTTDKGKTYTFILDGDGKKFPIGGTMPDVKINENGYWSVNGSSTGVLANDL
soluble fraction (log2): 0.368

HMKFSVEEQFKKSFPKNTYETFSETSLKGVYEVYNGKQVYYYLPVNDVLLLGSIVTKDGKNLTQESNSKK
soluble fraction (log2): -0.279

HMKGIVFTEFLDLVEERFGLEMVDAIISQSKLESKGVYTSIGTYSFSELLQLLQNLKIQTGISIDNLLLI
soluble fraction (log2): -0.961

HMKGKIYFFEEGVDRVGGVERVISTLANEFSKKYKVNVISFYKTRKETFFKYNSDIDITYLSK
soluble fraction (log2): 0.152

HMKGLDRATNKALLLKHIIDNGSTGTRFSELRQVLPSLTRGSISSLLIELRSEGKIHSIGVTRNARWYPTE
soluble fraction (log2): -1.79

HMKGLKERLLYFIEYKGLPVQMFEKIVGLSNAAVSKMGDNTRRSTIDKISKSFPELDVNWLLTGQGEMLSY
soluble fraction (log2): -0.942

HMKGPAFAKIDLTQLPAGLTSFLNTNAAGFKLDYAVAITKDSVIIEYHVGVTIGTAKKEFHLDPNFQLLP
soluble fraction (log2): -0.499

HMKGPLKDLGPDPVTGKSILVKDGKFGTYVTDGETNATLRRGDIVELLTLERGMELLAEKRARATQ
soluble fraction (log2): 0.0771

HMKGTVKFFNESKGFGFITEEGTNKEHFVHVSGLVDEIRENDEVEFDLQDGRKGLNAVNVRV
soluble fraction (log2): 0.363

HMKGVENLSDIDIQKALNNARANLSKNKAKLEQAGDDEKKKASALAMIQKWETTKKAIEEEIEARKKKSLN
soluble fraction (log2): -0.491

HMKHAIKEKIRNEYVHGYLNEEGYRVMPTLDELIRKYEVPASSTYRASSKEGWKKQKEAFLEHLRGEIDA
soluble fraction (log2): -0.492

HMKHFFIIAGGKIEDAFAIEVLKGFAEKTVIAADSGMEFLRRNEIVPQVIIGDFDSVSKETLEWFQKK
soluble fraction (log2): -0.751

HMKHKGILTTWNDDRGFGFITPKEGKEPVFVHISAFARGQGRPVLNASLTYRLVRDDQQRPRAEAVRL
soluble fraction (log2): -1.33

HMKHKHHIIPKHKGGTDHPDNLIELTVEQHAKAHWVEFMLDGREEDYWAWKGLEGVASKKDIIYALSKR
soluble fraction (log2): -0.0688

HMKHSEAIELGKRMLSQALQDVSLVLKKIPEERLQAVAAELNLKTPDELFEKIGLGERLAALVARRLLP
soluble fraction (log2): -0.851

HMKHTQTDEGELLSTLRTLFPNSSSSSLRKMLTQGRILVNQEVVHRAKHALQAGDEIEVLARQ
soluble fraction (log2): -0.13

HMKHVDLDNNERYIYGIIGSTKIHVDEVVEKSGMETKHVMAILTNLELKEAIKGIPGGFYLR
soluble fraction (log2): -2.02

HMKHVENLSDEKTIQAIQENPYMQYLLGLSKFTEKPVFVPELFVLIRKRLDQDFFNMLTLILAEADG
soluble fraction (log2): ≥ 1.04

HMKHYIDFIAEQLKTLTAIPSPSGYTKNATDYLMKLLQDMGYEPKLSRKGNVFVTLGGDGEPLVLAAHVD
soluble fraction (log2): 0.112

HMKIDELKAYLFQSVRVKNPHTQEYDTLKIIELNYYQDKIKAKLKNSDDDYITEMIFESIKHLQNFLG
soluble fraction (log2): -2.81

HMKIEEIAYSTFISMLDKGEVSKVELKDNLIYIETKADDKTIYTTGRMEDPDLTNRLIEAGVDFTEIE
soluble fraction (log2): -0.196

HMKIELSDNEKIIYDLLSSQHVLLSEIKDKAGLSNKAWDKSTKSLRKLGLIAVEKKDDDIYISKL
soluble fraction (log2): -0.0288

HMKIGIYPGTFDPITHGHTDIIRRSLRVFDKVVVAVAPNPSKHPLFTLTERLEMIRIVMKELEHVEVT
soluble fraction (log2): 0.159

HMKILVTDDNIRIDKYLTTQTEYSRSTIQKMIESNNILVNNKPTKSNYILRNNDEITIDENFNEE
soluble fraction (log2): -0.00567

HMKININEASRYELMTIGGLDAGRADMLMQYRQKREISSADELKGINGFASYDTAKLQKSFEISP
soluble fraction (log2): -0.0573

HMKIRKAVIPAAGLGTRVLPASKSIPKEMLPIVDKPVIQYIVEEAVKAGITEILIITGRGKGAIEDHFDRS
soluble fraction (log2): -0.391

HMKISIDNPSVLLDKLATLFPDTSKNKLRKMLTEGRIYVNDNIEHRAKRELINGDTVKILDKTTSKE
soluble fraction (log2): -0.121

HMKITAPLPGTITEIKVKVGDTVKNGDTVVVLEAMKMQNNIEAESNGTVTAIFVNKGDTVMEGDALMTI
soluble fraction (log2): -0.075

HMKITTKNYFKAIAEVGVENLPAALKKSHDLIEERTSKGADWSVYEHDAEVRRVFDLTFEKLFEFIDQ
soluble fraction (log2): -1.88

HMKKAITMGDIITVKELSEKIGIQVAEIIKKLMGLGILATINKELDYDTANVIASEFHIELERK
soluble fraction (log2): 0.117

HMKKASLSTVEKKLMKQNYSNDTMENRLARVESYMFGTVFSSDDTQTRIDRISSAYNAQKSS
soluble fraction (log2): -0.0731

HMKKDLATYAYEHIKQMVIDRELMPGERIQQEVLARELGISRTPLVTALNRLASENLVELEANKGFSVRRF
soluble fraction (log2): -0.451

HMKKEETEAEELEEKFTSAQIKQAYGILNDPRYKQGNYSGAVNVINKIAPGLADHPDVKNALKRANEEL
soluble fraction (log2): 0.809

HMKKGRIGSIIQYVREHPGVSSSEIITGLGLDISPATIRRDLTLLVAENKLSVEGQNKGTKYFVSPTYDMF
soluble fraction (log2): -1.22

HMKKIDVEVVRSQLIAWMADNGKSQAEVSKSMGISASALSMFIKGTYTGDNEQIGRKAAALMDLVHRQSA
soluble fraction (log2): -1.41

HMKKILITGNSGYIGSHLSKMLENDYEVHGLDIRQPQHPVAKFYEQDINRPINIEEEYDAVIHLAALV
soluble fraction (log2): -0.348

HMKKILLGDVNLDGKVDVNDVTLLQRYIAGETEVITSKDALTATNFNKDGNIDVLDVTDIQTFIANSE
soluble fraction (log2): -0.293

HMKKLTNKQIIFFAEKLAHHSDFASKYSKVGESYEEFAIRLEKELNTPQKVEFYSSYLEKVGFK
soluble fraction (log2): -2.54

HMKKPKTVLSEEQKEFIINQAQDGVSAYDIARILFPSVNVTNLSKEVIDVAEFIRDTDIKLLADSE
soluble fraction (log2): 0.00266

HMKKPRKTSRKSIENAAIFYLQRFSSSIENLRRVLMRRVYRSAQYHNTKPEEDAKIVDSIIYRLIETGVL
soluble fraction (log2): -0.322

HMKKSRLHSVLEEIPGIGEKRRKILIKHFGTVEAIKKSSLEELARIKGMNRRAAQNVLEYLK
soluble fraction (log2): -0.775

HMKKVIKIEENVSLQKLAALMSLKVTDVLMRLLSMGMSGVNINSTIDADTAKILASEFGWTVED
soluble fraction (log2): -0.529

HMKKVKVPNVVGMSLKEARDALSAVNIAVNQVAGSVEDKSVVTEQSLKAGDEVDEGSSLNLTTEYK
soluble fraction (log2): 0.878

HMKKYLTETEAAAYLNMPVEEIKAAITKGEIEQYVKTSSGYTISVEELDKFFGQKAYDTMTSNNS
soluble fraction (log2): 0.0786

HMKLASIGDNIHTLRKNKGLTQSQLAGKLGVNVDTISNYEKGVSTPDFDIVEKLVNIFNVDAHSLLFK
soluble fraction (log2): -0.287

HMKLEKKWIEAVEKYRRYVLSTGIKHVQKPIEFENFRLGQWYADVRQSYRRGTLSKEKLLEIREINPDFPN
soluble fraction (log2): -2.17

HMKLFGTPGSPFARKVRIVLEEKRIPHEYIIERGSAPGSRVPQYNPLGKVPTLVLDDGRGLYDSPVIVEYL
soluble fraction (log2): -0.531

HMKLGYTVHGNVVTVKAVANGISLYNTIGQKVAESTDGQTVKAPAHGVYILSVQGKSGSRETAKIVI
soluble fraction (log2): -1.67

HMKLHQDLQIKVIDAANNKVEFIDTATGTSLATRTLDVNGVSKARGFEATLYGVVEDNDVFHIA
soluble fraction (log2): 0.121

HMKLIRIPFILTEGPDSQKITIDVDGDEEFRLGDVFEEDDKLWTVNQILVSGERKAKRSMAGEVMRISALR
soluble fraction (log2): -1.2

HMKLNEQSMQVIDRIVDRHRGRPGPVKLMLHDVQKELGYIPFEAMEKIAAASGVSADEVYGVVTFYTQFTT
soluble fraction (log2): -0.919

HMKLNETIAEARKRKGLTQEQLAQKLYVTRQAVSRWERGEVVPGIDMLKLIAITLEEPIVHLL
soluble fraction (log2): -1.64

HMKLQIQNIEIDKKISELAEGVSAEKLPFLAKLIDRSKLLNDKGEINEDSVKAAIEEVVKAFPDFK
soluble fraction (log2): 0.0511

HMKLRKINLIGIFGSKTAPSALVRLTNGRVLKVGLGELLDGGRVTAIGRSSLTYNKSGKSITLNMPI
soluble fraction (log2): -4.08

HMKLRYRTQEELLGVAREYRRRGLPLSVIVIDFYHWTKFGDWKFDPAYWPDPVGMVRELRDMGVEAAV
soluble fraction (log2): -0.17

HMKLSKKVTDFLAQMPSKSISPKMLANNLGLADDAGDYKHLLKTIAQLEESKAIEVTAAGNIALPQPE
soluble fraction (log2): -0.162

HMKLSLKTQVKEYLLSYIRDKKLQPGDRLLTQRELAEMLHTSQKVAQMALNSLEEEGIIIRRLGSGSFLAR
soluble fraction (log2): -1.31

HMKLTKPQEVFIQELLKGSSQYEAYLKAYPSKKTWKRNSIDTEASKLFKNAKIKQRYEELLYNIREE
soluble fraction (log2): -0.695

HMKLTNNDFIRLKTFMYNNYGINLENKKTLIETRLAIVVKRLGFNDFKSYIDNLMRDKTGEQASIIVGKLT
soluble fraction (log2): -2.83

HMKLTPKQQQIYDFISSFADEHGYPPSVREIAQAVNLKSPATVHFHLKGLREAGYISQAEGKTRAITI
soluble fraction (log2): -0.158

HMKMDGESQRLLSLIKEQGGSLPIGDKSSPEAIYRLTQMSKKTFKMALGSLYKAKQVVLSPTEVRL
soluble fraction (log2): -1.45

HMKMNFNEEEQKLLSEANVLVETNKTYTDDEVKGFSNKIVEHIMTFSKTDIPKVKSKFDPILFKI
soluble fraction (log2): -0.359

HMKMTIEDLITQAKESNAAENYYEAFQLYSKAIDVLPNDPDLYSARGVVLFHLDRKEDSLIDMNKSVD
soluble fraction (log2): -0.17

HMKMVEIDYGKFLTMLDTGKVKSVEIENNRIAINPSSSKDKNIYITGRMDDPELVDRLKNAKVEFTKVIP
soluble fraction (log2): -0.0753

HMKNAYDLKMLVKDNDGNIERNMKYYFFLANGSKVEGITDDNGYTKTITTIQPEKADLHLINDELI
soluble fraction (log2): -1.61

HMKNDIQLKHDVEEELQWDPAVDASRFAVQAKDGVVTLSGGVDTFADKHAAEEAIRRVAGVTALVIHVDV
soluble fraction (log2): -0.27

HMKNEFRVYPNPANKEIVTFNQTQDIEVYDTLGKLVLKAKNTNTLDTKSFHSGIYFIKTGSGLTRKLVV
soluble fraction (log2): -1.09

HMKNEQESIAQKLYEAALKNDFVTIQEIQSGGYRLRNDDLTHMRESGVQSNTLIAIQKIFGL
soluble fraction (log2): 0.404

HMKNEQIFIVRPDAEGTRLDQWLAAQMASSEEAPSRMQIQRWIKAGLVEGQGTLNPARRIEAGESYTVKPG
soluble fraction (log2): 0.0684

HMKNEYAMVIQVNGKLRGNMLVSADLEQKDIERMALDNEDIKRFISHENDVKKMIFVPKKLINIVT
soluble fraction (log2): -1.21

— the domain aggregation screens of Martell et al. (2025)
